# In patent US20240287172A1 (SCIRHOM, published 2024):
# T1: hiR2-FL-I566E-T7 (human, UniProt Q6PJF5 1-856)
# T1 construct: on MEF-DKO cells; also called hiR2-FL-1566E-T7
# T1 sequence: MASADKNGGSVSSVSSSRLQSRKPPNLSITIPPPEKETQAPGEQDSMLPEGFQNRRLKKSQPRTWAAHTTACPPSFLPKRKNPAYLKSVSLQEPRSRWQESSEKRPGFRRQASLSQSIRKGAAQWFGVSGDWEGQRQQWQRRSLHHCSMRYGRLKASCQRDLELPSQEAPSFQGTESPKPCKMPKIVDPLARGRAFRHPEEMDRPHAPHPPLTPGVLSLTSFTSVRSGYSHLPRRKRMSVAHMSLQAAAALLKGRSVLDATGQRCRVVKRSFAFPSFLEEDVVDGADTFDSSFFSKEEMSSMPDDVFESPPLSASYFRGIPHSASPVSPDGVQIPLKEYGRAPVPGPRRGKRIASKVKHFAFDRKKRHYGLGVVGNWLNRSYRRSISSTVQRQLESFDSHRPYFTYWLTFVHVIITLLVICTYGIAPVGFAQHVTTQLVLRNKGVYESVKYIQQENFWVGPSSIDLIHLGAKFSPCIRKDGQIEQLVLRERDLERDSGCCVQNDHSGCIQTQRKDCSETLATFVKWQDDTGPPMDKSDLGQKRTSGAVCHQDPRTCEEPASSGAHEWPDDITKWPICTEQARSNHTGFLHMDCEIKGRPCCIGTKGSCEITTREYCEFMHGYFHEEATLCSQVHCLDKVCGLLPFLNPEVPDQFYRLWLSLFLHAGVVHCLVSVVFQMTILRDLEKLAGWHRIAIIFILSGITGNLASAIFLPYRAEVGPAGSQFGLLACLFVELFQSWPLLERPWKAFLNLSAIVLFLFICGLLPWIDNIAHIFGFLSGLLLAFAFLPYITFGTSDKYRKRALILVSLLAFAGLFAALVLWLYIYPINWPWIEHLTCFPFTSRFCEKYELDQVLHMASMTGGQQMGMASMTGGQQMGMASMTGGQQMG
# Molecular target: T1, hiR2-FL-I566E-T7
# Assay: FACS, MEF-DKO cells, 3 µg/ml
# Text: In brief, immortalized MEF-DKO hiR2-FL-G563D-T7, MEF-DKO hiR2-FL-A564P-T7, MEF-DKO hiR2-FL-1566E-T7, MEF-DKO hiR2-FL-D569E-T7, MEF-DKO hiR2-FL-E579K-T7, MEF-DKO hiR2-FL-Q580N-T7, MEF-DKO hiR2-FL-A581S-T7, MEF-DKO hiR2-FL-R582A-T7, MEF-DKO hiR2-FL-S583G-T7, MEF-DKO hiR2-FL-G587N-T7, MEF-DKO hiR2-FL-F588H-T7, MEF-DKO hiR2-FL-L589P-T7, MEF-DKO hiR2-FL-E594V-T7, MEF-DKO hiR2-FL-K596T-T7, MEF-DKO hiR2-FL-S607R-T7, MEF-DKO hiR2-FL-T612S-T7, MEF-DKO hiR2-FL-E617D-T7, MEF-DKO hiR2-FL-H620R-T7, MEF-DKO hiR2-FL-L636M-T7, MEF-DKO hiR2-FL-K638D-T7, MEF-DKO hiR2-FL-1771F-T7, MEF-DKO hiR2-FL-1825V-T7, MEF-DKO hiR2-FL-1828V-T7, MEF-DKO hiR2-FL-N829R-T7, MEF-DKO hiR2-FL-W830C-T7, MEF-DKO hiR2-FL-P831E-T7, MEF-DKO hiR2-FL-I833C-T7, MEF-DKO hiR2-FL-H835F-T7, MEF-DKO hiR2-FL-F8391-T7, MEF-DKO hiR2-FL-S843D-T7, MEF-DKO hiR2-FL-Q853A-T7, MEF-DKO hiR2-FL-V854Q-T7 and MEF-DKO hiR2-FL-R844K-T7 cells were harvested with 10 mM EDTA in PBS, washed and resuspended in FACS buffer (PBS, 3% FBS, 0.05% sodium azide), and seeded in Nunc U-bottom 96-well plates (Thermo Fisher Scientific, USA) at approximately 1×10⁵ cells per well. To pellet cells and remove supernatants, the plates were centrifuged at 1,500 rpm and 4° C. for 3 minutes. For primary staining, cells were resuspended in 100 μl per well of either FACS buffer alone (controls) or the purified antibodies 3, 5, 16, 22, 34, 42, 43, 44, 48, and 50 of the invention at 3 μg/ml in FACS buffer and incubated on ice for 1 hour. Afterwards, plates were centrifuged at 1,500 rpm and 4° C. for 3 minutes and washed twice with 200 μl per well of FACS buffer. For secondary staining, cells were spun down and resuspended in 100 μl per well of PE-conjugated goat anti-mouse IgG F(ab′)2 detection fragment (Dianova, Germany) diluted 1:100 in FACS buffer. Protected from light, the cell suspensions were incubated on ice for 1 hour. Plates were then centrifuged at 1,500 rpm and 4° C. for 3 minutes and washed three times with 200 μl per well of FACS buffer. Finally, cells were resuspended in 150 μl per well of FACS buffer and analyzed using a BD Accuri™ C6 Plus flow cytometer (Becton Dickinson, Germany).
row,Binder,loss of binding vs wild type [%]
1,"antibody 5 (antibody, V domains shown, mouse IgG, kappa light chain; also called clone #5; purified antibody 5) VH: QVTLKESGPGILQPSQTLSLTCSFSGFSLSTFGMGVGWIRQPSGKGLEWLAHIWWDDEKYYNSALKSRLTISKATSKNQAFLKIANVDTADTATYYCARISNYGSNYWYFNVWGTGTTVTVSS VL: QVVLTQSPALMSASPGEKVTMTCSAGSSVSCMYWYQQKPGSSPRVLIYDTSNLASGVPARFTGSGSGTSYSLTISRMEAEDAASYYCQQWNSYPLTFGAGTKLELK",≥ 95
2,"antibody 43 (antibody, V domains shown, mouse IgG, kappa light chain; also called clone #43; purified antibody 43) VH: QVALKESGPGILQPSQTLSLTCSFSGFSLSTFGMGVGWIRQSSGKGLEWLANIWWDDDKYYNPALKSRLTISKDASKNQAFLKIANVDTADTATYYCARIGNYGSNYWYFDVWGTGTTVTVSS VL: QIVLTQSPAIMSASPGERVTMTCSANSRISYMYWYQQKPGSSPRLLIYDTSNLASGVPVRFSGSGSGTSYSLTISRMEAEDAATYNCQQWSSYPLTFGAGTKLELK",≥ 60
3,"antibody 42 (antibody, V domains shown, mouse IgG, kappa light chain; also called clone #42; purified antibody 42) VH: QVTLKESGPGILQPSQTLSLTCSLSGFSLSTFGRGVGWIRQPSGKGLEWLAHIWWDDEKYYNPALKSRLTISKDTSKNQVFLRIANVDTADTATYYCARIQNYGSNYWYFDVWGTGTTVTVSS VL: LIVLTQSPAIMSASPGEKVTMTCGATSRISYMFWYQQKPGSSPRVLIYDTSNLASGVPVRFSGSGSGTSYSLTISRVEAEDVATYYCQQWNSYPLTFGAGTKLELK",≥ 60
4,"antibody 44 (antibody, V domains shown, mouse IgG, kappa light chain; also called clone #44; purified antibody 44) VH: QVTLKESGPGILQPSQTLSLTCSFSGFSLSTFGMGVGWIRQPSEKGLEWLAHIWWDDDKYYNPALKSRLTISKDTSKNQIFLKITNVDTAETATYYCSRIGNYGSNYWYFDVWGTGTTVTVSS VL: QIVLTQSPAVMSASPGEKVTMTCTASSSVYYMYWYQQTPGSSPRLLIYDTSNLASGVPVRFSGSGSGTSYSLTISRMEAEDAATYYCQQWNTYPLTFGAGTKLELK",≥ 60
5,"antibody 22 (antibody, V domains shown, mouse IgG, kappa light chain; also called clone #22; purified antibody 22) VH: QVTLKESGPGILQPSQTLSLTCSFSGFSLSTFGMGVGWIRQPSGKGLEWLAHIWWDDEKYYNSALKSRLTISKATSKNQVFLKIANVDTADTATYYCARISNYGSNYWYFNVWGTGTTVTVSS VL: QVVLTQSPALMSASPGEKVTMTCSAGSSVSYMYWYQQKPGSSPRVLIYDTSNLASGVPARFTGSGSGTSYSLTISRMEAEDAATYYCQQWNSYPLTFGAGTKLELK",≥ 60
6,"antibody 3 (antibody, V domains shown, mouse IgG, kappa light chain; also called clone #3; purified antibody 3) VH: QVTLKESGPGILQPSQTLSLTCSFSGFSLTTFAMGIGWVRQPSGKGLEWLAHIWWDGEKYNNPVLKSRLTISKDTSKNQVFLRIANVDTPDTATYYCARISSIYYIIDNWGQGTSVTVSS VL: DIVLTQSPATLSVTPGHSVSLSCRASQSISNNLHWYQKKSHESPRLLIKYVSQSISGIPSRFSGSGSGTDFTLSINSVETEDFGMYFCQQSYNWPLTFGAGTKLELK",≥ 30
7,"antibody 34 (antibody, V domains shown, mouse IgG, kappa light chain; also called clone #34; purified antibody 34) VH: QVTLKESGPGILQPSQTLSLTCSFSGFSLSTFSLGVGWIRQSSGKGLEWLAHIWWDDEKYYNPALKSRLTISKDTSKNQVFLKIANVDAADTATYYCARAYYSKSYYALDYWGQGTSVTVSS VL: DIQMTQSPSSLSASLGERVSLTCRASQEISGYLSWLQQKPDGTIKRLIYAASTLDSGVPKRFSGSRSGSDYSLAISSLESEDFADYYCLQYANFPFTFGSGTKLEIK",≥ 60
